# B1: 059-152-Fv (Fv fragment of the fully human anti-EGFR antibody 059-152) (other)
# VH: QVQLQESGPGLVKPSETLSLTCTVSGGSISSSSYYWGWIRQPPGKGLEWIGSIYYSGSTYYNPSLKSRVTISVDTSKNQFSLKLSSVTAADTAVYYCARLPMVTMSFDYWGQGTLVTVSS
# VL: SYVLTQPPSVSVAPGKTARITCGGNNIGSKSVHWYQQKPGQAPVLVIYYDSDRPSGIPERFSGSNSGNTATLTISRVEAGDEADYYCQVWDSSSDHVVFGGGTKLTVL
# notes: also in PDB 5XWD; VL also in PDB 5XWD; Fv: VH and VL synthesised together as two separate chains; source: cell-free synthesis (E. coli S30 extract, dialysis mode, 0.2 mg/ml DsbC), purified (HisTrap, TEV cleavage, SEC); not shown: N11-tag, N-terminal, cleaved
# B2: 059-152-Fab (Fab fragment of the fully human anti-EGFR antibody 059-152) (Fab, V domains shown)
# VH: B1 VH
# VL: B1 VL
# notes: also in PDB 5XWD; its VL part is in PDB 5XWD; source: cell-free synthesis (E. coli S30 extract, dialysis mode, 0.8 mg/ml DsbC), purified (HisTrap, TEV cleavage, SEC); not shown: N11-tag, N-terminal, cleaved
# B3: AzF-incorporated 059-152-Fab (Fab, V domains shown)
# VH: B1 VH
# VL: B1 VL
# notes: also in PDB 5XWD; linker inserted just before the stop codon, followed by the amber codon that is read as AzF; AzF is the last residue of the VHCH1 chain, after the linker; also called AzF-incorporated Fab; not shown: N11-tag, N-terminal, cleaved
# B4: AzF-incorporated 059-152-Fv (other, human)
# VH: B1 VH
# VL: B1 VL
# notes: also in PDB 5XWD; linker inserted just before the stop codon, followed by the amber codon that is read as AzF; Fv; AzF is the last residue of the VH chain, after the linker; also called AzF-incorporated Fv; not shown: N11-tag, N-terminal, cleaved
# B5: Alexa-488 conjugated 059-152-Fv (other, human)
# VH: B1 VH
# VL: B1 VL
# notes: also in PDB 5XWD; linker inserted just before the stop codon, followed by the amber codon that is read as AzF; Fv; m3 after copper-free click chemistry; also called Alexa-488 conjugated Fv; not shown: N11-tag, N-terminal, cleaved
# B6: Alexa-488 conjugated 059-152-Fab (Fab, V domains shown)
# VH: B1 VH
# VL: B1 VL
# notes: also in PDB 5XWD; linker inserted just before the stop codon, followed by the amber codon that is read as AzF; m6 after copper-free click chemistry; also called Alexa-488 conjugated Fab; not shown: N11-tag, N-terminal, cleaved
# Biological target: T1, EGFR-ECD (extracellular domain of human epidermal growth factor receptor, 1-643) (Homo sapiens, UniProt P00533, N-linked oligosaccharides cleaved by endoglycosidase H)
# T1 construct: human epidermal growth factor receptor, extracellular domain, residues 1-643 as printed; A TEV site between the ECD and the His-tag is implied by the cleavage; also called extracellular domain of human EGFR; human EGFR-ECD; source: HEK293S GnTI- cells, transient overexpression, secreted; purified (HisTrap, TEV cleavage of the His-tag, endoglycosidase H, HiTrap Q, SEC); not shown: His-tag, …
# Test: SPR; BIAcore 3000; EGFR-ECD immobilised on a CM5 chip by amine coupling; single-cycle kinetics with 50.0, 16.6, 5.55, 1.85 and 0.617 nM Fv or Fab; 30 ul/min, 60-s association, 120-s dissociation; 25 C; HBS-EP+ buffer; triplicate
# Settings: both partners purified
Kd [nM],koff [s⁻¹],kon [M⁻¹ s⁻¹],Binder
5.9 ± 0.1,0.0147,2.49e+06,B1
7.7 ± 0.1,0.015,1.94e+06,B2
7 ± 0.1,0.0125,1.78e+06,B3
5.8 ± 0.2,0.0137,2.36e+06,B4
6.1 ± 0.1,0.0154,2.52e+06,B5
8.1 ± 0.2,0.0133,1.67e+06,B6

# Reference: paper PMC5819829, “Cell-free synthesis of functional antibody fragments to provide a structural basis for antibody–antigen interaction” (PLoS ONE, 2018)
